Laboratory results: US20250163138A1 (Alexion, published 2025)

Key:
[1] = molecular target: T1, human complement protein C5 (human, UniProt P01031 19-1676); assay: SPR (Biacore)
T1 construct: Native C5 is a two-chain protein made from one precursor; also called hC5; human C5

[2] = molecular target: T2, cynomolgus monkey (cyno) complement protein C5 (cynomolgus monkey, UniProt A0A2K5U1T1 19-1676); assay: SPR (Biacore)
T2 construct: also called cC5; cyno C5

human serum albumin [3] = molecular target: T3, human serum albumin (human, UniProt P02768 25-609); assay: BLI (Octet HTX), VHH-His on Penta-His sensors, 100 nM albumin
T3 construct: also called HSA; human albumin
Text: VHH sequences were first analyzed by SDS-PAGE and Coomassie staining to determine approximate concentration relative to a known standard. Supernatant concentrations were then normalized and subjected to biolayer interferometry on an Octet HTX (Pall/ForteBio). Penta-His sensors were exposed to kinetics buffer for 60 seconds to establish baseline measurements. The sensors were then loaded with VHH-His containing supernatants for 300 seconds before a second baseline was established in kinetics buffer over 120 seconds. Tips were then incubated with 100 nM HSA or CSA in kinetics buffer for 600 seconds and dissociation measured over an additional 600 seconds.

[4] = molecular target: T1, human complement protein C5; assay: SPR (Biacore), pH 6.0
[5] = molecular target: T2, cynomolgus monkey (cyno) complement …; assay: SPR (Biacore), pH 6.0
[6] = molecular target: T1, human complement protein C5; assay: SPR (Biacore), pH 7.4
[7] = molecular target: T4, Cynomolgus monkey serum albumin (cynomolgus monkey, UniProt A2V9Z4 25-608); assay: SPR (Biacore 3000), biotinylated albumin on CAP chip, pH 7.4
T4 construct: also called CSA; cynomolgus albumin
Experimental: (§1) Biotinylated albumin was captured onto a CAP chip saturated with Biotin CAPture reagent containing deoxyribooligonucleotides (obtained from GE Healthcare). Concentrations of purified VHH domains were injected for 5 minutes at a flowrate of 50 μL/min. Three concentrations were assessed per VHH domain. Bound analyte was allowed to dissociate for 600 seconds. The chip surface was regenerated after each concentration by injecting 6 M guanidine HCl/0.25 M NaOH for 2 minutes at 10 μL/min. Kinetics were determined at pH 7.4 and pH 6.0 in HBS-EP buffer using a 1:1 Langmuir model (local Rₘₐₓ and constant RI) and double reference subtraction (subtraction of a buffer concentration cycle from the sample concentration cycle and subtraction of a parallel reference flow cell).

human serum albumin [8] = molecular target: T3, human serum albumin; assay: as above
Experimental: as §1

[9] = molecular target: T4, Cynomolgus monkey serum albumin; assay: SPR (Biacore 3000), biotinylated albumin on CAP chip, pH 6.0
Experimental: as §1

human serum albumin [10] = molecular target: T3, human serum albumin; assay: as above
Experimental: as §1

Kd [1]	koff [1]	kon [1]	Kd [2]	koff [2]	kon [2]	binding result (human serum albumin [3])	Binder	other results
0.0435 nM	9.75e-05 s⁻¹	2.24e+06 M⁻¹ s⁻¹	0.0922 nM	0.000244 s⁻¹	2.64e+06 M⁻¹ s⁻¹		LCP0146 (VHH, llama anti-C5 VHH, tested as VHH-His fusion; not shown: His-tag) VHH: EVQLVESGGGLVQAGGSLRLSCAASGRAFSDYAMAWFRQAPGKEREFVAGIGWSGGDTLYADSVRGRFTNSKDNAKNRMSLQMNSLKPEDTAVYYCAARQGQYIYSSMRSDSYDYWGQGTQVTVSS	
						binds	HAS044 (VHH, anti-albumin VHH-His) VHH: QVQLVESGGGLVQAGGSLRLSCAASGRTFSSYAIGWFRQAPGKAREFVARVSTIAGDTDYADSVKGRFTISRDNAKNTVYLQMNSLKPEDTAVYYCAADSYNVRLVTGEADYWGEGTQVTVSS	
						binds	HAS077 (VHH, anti-albumin VHH-His) VHH: QVQLVESGGGLVQAGGSLRLSCAASGRTFSSYAIGWFRQAPGKAREFVARVSTIAGDTDYADSVKGRFTISRDNAKNTVYLQMNSLKPEDTAVYYCAADSYNVRLGTGEADYWGEGTQVTVSS	
						binds	HAS079 (VHH, anti-albumin VHH-His) VHH: EVQLVESGGGLVQAGDSLRLSCAASGFTFSNYAIGWFRQAPGKAREFVARVSTIAGDTDYANAVKGRFTISRDNAKNTVYLQMNSLKPDDTAVYYCAAESYNVRLVTGEADYWGEGTQVTVSS	
1.81 nM	0.000882 s⁻¹	486000 M⁻¹ s⁻¹	0.318 nM	0.000251 s⁻¹	789000 M⁻¹ s⁻¹		LCP0136 (VHH, llama anti-C5 VHH, tested as VHH-His fusion; not shown: His-tag) VHH: EVQLVESGGGLVQPGESLRLSCAISGFAFTDVGMSWVRQAPGKGLEWVSSISSGSSITTYSDSVKGRFTISRDNARNTLFLQMNSLKPEDTAVYYCGRYYCTGLGCHPRRDSALWGQGTQVTVSS	
0.309 nM	3.48e-05 s⁻¹	113000 M⁻¹ s⁻¹	0.107 nM	1.02e-05 s⁻¹	95300 M⁻¹ s⁻¹		LCP0115 (VHH, llama anti-C5 VHH, tested as VHH-His fusion; not shown: His-tag) VHH: EVQLVESGGGLVQAGGSLRLSCAASGRTFSGILSPYAVGWFRQAPGKGREFVSTITSGGSAIYTDSVKGRFTLSRDNAKDTVYLQMNSLKPEDTAVYYCAVRTRRYGSNLGEVPQENEYGYWGQGTQVTVSS	
0.195 nM	2.22e-05 s⁻¹	114000 M⁻¹ s⁻¹	0.232 nM	2.38e-05 s⁻¹	103000 M⁻¹ s⁻¹		LCP0302 (VHH, llama anti-C5 VHH, tested as VHH-His fusion; not shown: His-tag) VHH: EVQLVESGGGLVQAGGSLRLSCAASGRTFSGILSAYAVGWFRQAPGKEREFVSTITSGGSTLSADSVKGRFTLSRDNAKDTVYLQMNSLKPEDTAVYYCAVRTWPYGSNRGEVPTENEYGHWGQGTQVTVSS	
1.99 nM	0.000216 s⁻¹	108000 M⁻¹ s⁻¹	3.8 nM	0.000381 s⁻¹	100000 M⁻¹ s⁻¹		LCP0123 (VHH, llama anti-C5 VHH, tested as VHH-His fusion; not shown: His-tag) VHH: EVQLVESGGGLVQAGGSLTLSCAMSGGTRPFEDYVMAWFRQATGKEREFVATITWMGETTYYKDSVNGRFAISRDNAENTVALQMNSLEPEDTAVYFCAAHSRSSFSTSGGRYNPRPTEYDYWGQGTQVTVSS	
							CRL0499 (bispecific antibody, anti-albumin VHH / (G4S)3 / anti-C5 VHH fusion, purified by Protein A; also called CRL0499 (HSA/C5)) EVQLLESGGGLVQPGGSLRLSCAASGFTFRSFGMSWVRQAPGKGPEWVSSISGSGSDTLYADSVKGRFTISRDNSKNTLYLQMNSLRPEDTAVYYCTIGGSLSRSSQGTLVTVSSGGGGSGGGGSGGGGSEVQLVESGGGLVQPGGSLRLSCAASGRAHSDYAMAWFRQAPGQEREFVAGIGWSGGDTLYADSVRGRFTNSRDNSKNTLYLQMNSLRAEDTAVYYCAARQGQYIYSSMRSDSYDYWGQGTLVTVSS	Kd [4]: 0.448 nM; koff [4]: 0.00112 s⁻¹; kon [4]: 2.51e+06 M⁻¹ s⁻¹; Kd [5]: 2.02 nM; koff [5]: 0.00388 s⁻¹; kon [5]: 1.92e+06 M⁻¹ s⁻¹; Kd [6]: 0.15 nM; koff [6]: 0.000332 s⁻¹; kon [6]: 2.22e+06 M⁻¹ s⁻¹
						binds	HAS020 (VHH, anti-albumin VHH-His) VHH: QVQLVESGGGLVQAGGSLRLSCAASGRTFGSDAAGWFRQASGKEREFVASISWSGGYTYYADSVKGRFTISSDNVKNTVYLQMNSLTPEDTAVYFCATGNRYSDYRISLVTPSQYEYWGQGTLVTVSH	
						binds	HAS091 (VHH, anti-albumin VHH-His) VHH: QVQLVESGGGLVQAGGSLRLSCAASGRTFGSDAAGWFRQASGKEREFVASISWSGGYTYYADSGTGRFTISSDNVKNTVYLQMNSLTPEDTAVYFCATGNRDSDYRISLVTPSQYEYWGQGTQVTVSH	
						binds	HAS093 (VHH, anti-albumin VHH-His) VHH: QVQLVESGGGLVQAGGSLRLSCAASGRTFGSDAAGWFRQASGKEREFVASISWSGGYTYYADSGKGRFTISSDNVKNTVYLQMNSLTPEDTAVYFCATGNRYSDYRISLVTPSQYDYWGQGTQVTVSH	
						binds	HAS096 (VHH, anti-albumin VHH-His) VHH: QVQLVESGGGLVQAGGSLRLSCAASGRTFGSDAAGWFRQASGKEREFVASISWSGGYTYYADSVKGRFTSSSDNVKNTVYLQMNSLTPEDTAVYFCATVNRYSDYRISLVTPSQYEYWGQGTQVTVSH	
						binds	HAS081 (VHH, anti-albumin VHH-His) VHH: QVQLVESGGGLVQAGGSLRLSCAASGRTFSSDAAGWFRQASGKEREFVAAISWSGNYTYSADSVKGRFTISSDNVKNTVYLQMNSLKPEDTAVYLCAAGNRYSDYRISLVTPSQYEYWGQGTQVTVSH	
						binds	HAS080 (VHH, anti-albumin VHH-His) VHH: QVRLAESGGGRVQAGESLRLSCVASGRTFSNDAAGWFREASGKEREFVASISWSGNYTYYADSVKGRFTISEDNVKNTVYLQMTSLKPEDTAVYYCAAGNRYSDYRISLVTPRLYEYWGQGTQVTVSH	
2.5 nM	0.000714 s⁻¹	286000 M⁻¹ s⁻¹	3.69 nM	0.00168 s⁻¹	456000 M⁻¹ s⁻¹		LCP0095 (VHH, llama anti-C5 VHH, tested as VHH-His fusion; not shown: His-tag) VHH: EVQLVESGGGLVQAGGSLRLSCTASGRTISTTVMAWFRQAPGKEREFVAADHWGDAGTVYADSVKGRFTISRDNAKNTVYLQMNYLKPEDTSVYYCAARPPTYVGTSRDSRAYDYWGQGTQVTVSS	
							MSA21 VHH domain (VHH, Published comparator (WO 2004/062551 A2); also called ADL021) VHH: QVQLQESGGGLVQPGGSLRLSCEASGFTFSRFGMTWVRQAPGKGVEWVSGISSLGDSTLYADSVKGRFTISRDNAKNTLYLQMNSLKPEDTAVYYCTIGGSLNPGGQGTQVTVSS	Kd [7]: 3.85 nM; koff [7]: 0.00216 s⁻¹; kon [7]: 561000 M⁻¹ s⁻¹; Kd (human serum albumin [8]): 3.49 nM; koff (human serum albumin [8]): 0.00393 s⁻¹; kon (human serum albumin [8]): 1.13e+06 M⁻¹ s⁻¹; Kd [9]: 5.47 nM; koff [9]: 0.00153 s⁻¹; kon [9]: 280000 M⁻¹ s⁻¹; Kd (human serum albumin [10]): 5.46 nM; koff (human serum albumin [10]): 0.00181 s⁻¹; kon (human serum albumin [10]): 330000 M⁻¹ s⁻¹
0.082 nM	5.66e-05 s⁻¹	691000 M⁻¹ s⁻¹	0.167 nM	0.000124 s⁻¹	741000 M⁻¹ s⁻¹		LCP0143 (VHH, llama anti-C5 VHH, tested as VHH-His fusion; not shown: His-tag) VHH: EVQLVESGGGLVQAGGSLRLSCAAPEMGATINVMAWYRQAPGKQRELVARLPLDNNIDYGDFAKGRFTISRDITRNTVYLQMNNLKPDDTAVYYCNVLLSRQINGAYVHWGQGTQVTVSS	
0.417 nM	3.9e-05 s⁻¹	93400 M⁻¹ s⁻¹	1.55 nM	0.000106 s⁻¹	68400 M⁻¹ s⁻¹		LCP0296 (VHH, llama anti-C5 VHH, tested as VHH-His fusion; not shown: His-tag) VHH: EVQLVESGGGVVQAGDSLTLTCTAPVGTISDYGMGWFRQAPGKEREFVASISWGGMWTDYADSVKGRFTISRDNDKNAVYLRMNSLNAEDTAVYYCGRGRMYRGIGNSLAQPKSYGYWGQGTQVTVSS	
							HAS040 (VHH, anti-albumin VHH-His; also called HAS40) VHH: QVQLNESGGGMVQAGGSLRLSCAASGRTVSNYAAGWFRQAPGKEREFVAAINWNKTTTYADSVKGRFIISREYAKNTVALQMNSLKPEDTAVYYCAAVFRIVAPKTQYEYDYWGQGTQVTVSS	Kd [7]: 0.539 nM; koff [7]: 0.000562 s⁻¹; kon [7]: 1.04e+06 M⁻¹ s⁻¹; Kd (human serum albumin [8]): 0.341 nM; koff (human serum albumin [8]): 0.00044 s⁻¹; kon (human serum albumin [8]): 1.29e+06 M⁻¹ s⁻¹; Kd [9]: 0.764 nM; koff [9]: 0.000281 s⁻¹; kon [9]: 368000 M⁻¹ s⁻¹; Kd (human serum albumin [10]): 0.466 nM; koff (human serum albumin [10]): 0.000208 s⁻¹; kon (human serum albumin [10]): 445000 M⁻¹ s⁻¹
							HAS041 (VHH, anti-albumin VHH-His; also called HAS41) VHH: QVQLIESGGGLVQAGGSLGLSCAASGRPVSNYAAAWFRQAPGKEREFVAAINWNKTATYADSVKGRFTISRDNAKSTVALQMNSLKPEDTAVYYCAAVFRVVAPKTQYDYDYWGQGTQVTVSS	Kd [7]: 1.15 nM; koff [7]: 0.00123 s⁻¹; kon [7]: 1.07e+06 M⁻¹ s⁻¹; Kd (human serum albumin [8]): 0.461 nM; koff (human serum albumin [8]): 0.000566 s⁻¹; kon (human serum albumin [8]): 1.23e+06 M⁻¹ s⁻¹; Kd [9]: 2.37 nM; koff [9]: 0.000739 s⁻¹; kon [9]: 312000 M⁻¹ s⁻¹; Kd (human serum albumin [10]): 1.04 nM; koff (human serum albumin [10]): 0.000387 s⁻¹; kon (human serum albumin [10]): 373000 M⁻¹ s⁻¹
						binds	HAS038 (VHH, anti-albumin VHH-His) VHH: QVQLVESGGGLVQPGGSLRLSCTGSGHSFSTYTVGWFRQAPGEERKFVASISWSGEVTLYGDSVKGRFTISRDNRKKTVYLQMHSLKPEDSAIYYCAAKRGGRPTDSSDDYFYWGQGTQVTVSS	
